Data from paper PMC4726246.

B1: TASK-1: N53A (protein)
parent chain: MKRQNVRTLALIVCTFTYLLVGAAVFDALESEPELIERQRLELRQQELRARYNLSQGGYEELERVVLRLKPHKAGVQWRFAGSFYFAITVITTIGYGHAAPSTDGGKVFCMFYALLGIPLTLVMFQSLGERINTLVRYLLHRAKKGLGMRRADVSMANMVLIGFFSCISTLCIGAAAFSHYEHWTFFQAYYYCFITLTTIGFGDYVALQKDQALQTQPQYVAFSFVYILTGLTVIGAFLNLVVLRFMTMNAEDEKRDAEHRALLTRNGQAGGGGGGGSAHTTDTASSTAAAGGGGFRNVYAEVLHFQSMCSCLWYKSREKLQYSIPMIIPRDLSTSDTCVEQSHSSPGGGGRYSDTPSRRCLCSGAPRSAISSVSTGLHSLSTFRGLMKRRSSV
B2: TASK-1: S55A (protein)
parent chain: B1 parent chain

Key:
[1] = ratio of TEVC current to surface expression; settings: glycan lost; control: wild type
[2] = TEVC, co-expression in Xenopus oocytes, +40 mV; settings: glycan lost; control: TASK-3 WT alone

Row | Protein | other: conductivity (current / surface expression ratio) [1] | other: current of co-expressed TASK-3 [2]
1 | B1 | no change | no change
2 | B2 | no change | 
